According to patent publication US20180251503A1 (Memorial Sloan Kettering, published 2018):

B1: GD2xCD3 bispecific fusion protein (scFv5F11-(G4S)3-scFvhOKT3, Y-BT, without dimerization component) (bispecific antibody)
scFv: QVQLQQSGPELVKPGASVKISCKTSGYKFTEYTMHWVKQSHGKCLEWIGGINPNNGGTNYNQKFKGKATLTVDKSSSTAYMELRSLTSEDSAVYYCARDTTVPYAYWGQGTTVTVSSGGGGSGGGGSGGGGSDIELTQSPAIMSASPGEKVTMTCSASSSISYMHWYQQKPGTSPKRWIYDTSKLASGVPARFSGSGSGTSYSLTISSMEAEDAATYYCHQRSSYPLTFGCGTKLEIKRASTKGPGGGGSGGGGSGGGGSQVQLVQSGGGVVQPGRSLRLSCKASGYTFTRYTMHWVRQAPGKGLEWIGYINPSRGYTNYNQKFKDRFTISRDNSKNTAFLQMDSLRPEDTGVYFCARYYDDHYCLDYWGQGTPVTVSSGGGGSGGGGSGGGGSDIQMTQSPSSLSASVGDRVTITCSASSSVSYMNWYQQTPGKAPKRWIYDTSKLASGVPSRFSGSGSGTDYTFTISSLQPEDIATYYCQQWSSNPFTFGQGTKLQITRHHHHHH
B2: GD2xCD3-HDD bispecific fusion protein (scFv5F11-scFvhOKT3 with HNF-1alpha dimerization component, Y-BT-HDD) (bispecific antibody)
scFv: QVQLQQSGPELVKPGASVKISCKTSGYKFTEYTMHWVKQSHGKCLEWIGGINPNNGGTNYNQKFKGKATLTVDKSSSTAYMELRSLTSEDSAVYYCARDTTVPYAYWGQGTTVTVSSGGGGSGGGGSGGGGSDIELTQSPAIMSASPGEKVTMTCSASSSISYMHWYQQKPGTSPKRWIYDTSKLASGVPARFSGSGSGTSYSLTISSMEAEDAATYYCHQRSSYPLTFGCGTKLEIKRASTKGPGGGGSGGGGSGGGGSQVQLVQSGGGVVQPGRSLRLSCKASGYTFTRYTMHWVRQAPGKGLEWIGYINPSRGYTNYNQKFKDRFTISRDNSKNTAFLQMDSLRPEDTGVYFCARYYDDHYCLDYWGQGTPVTVSSGGGGSGGGGSGGGGSDIQMTQSPSSLSASVGDRVTITCSASSSVSYMNWYQQTPGKAPKRWIYDTSKLASGVPSRFSGSGSGTDYTFTISSLQPEDIATYYCQQWSSNPFTFGQGTKLQITRTPLGDTTHTSGMVSKLSQLQTELLAALLESGLSKEALIQALGEGSGGAPHHHHHH
B3: Humanized OKT3 IgG (parental humanized OKT3 antibody) (antibody, V domains shown)
VH: QVQLVQSGGGVVQPGRSLRLSCKASGYTFTRYTMHWVRQAPGKGLEWIGYINPSRGYTNYNQKFKDRFTISRDNSKNTAFLQMDSLRPEDTGVYFCARYYDDHYCLDYWGQGTPVTVSS
VL: DIQMTQSPSSLSASVGDRVTITCSASSSVSYMNWYQQTPGKAPKRWIYDTSKLASGVPSRFSGSGSGTDYTFTISSLQPEDIATYYCQQWSSNPFTFGQGTKLQITR

target: CD3 on T cells (Jurkat cells; purified human T cells) (human, UniProt P07766 23-207; P09693 23-182; P04234 22-171); test: cell-based or functional assay

B1 and B2 are within 1.5-fold of each other in “IFN-γ release from human T cells (no tumor cells), ELISA” value: 1.7 pg/mL for the first, 2.1 pg/mL for the second.

For B3, the “IFN-γ release from human T cells (no tumor cells), ELISA” value was 228 pg/mL.

B1 and B2 are within 1.5-fold of each other in “IL-2 release from human T cells (no tumor cells), ELISA” value: 2 pg/mL for the first, 2.2 pg/mL for the second.

In the case of B3, the “IL-2 release from human T cells (no tumor cells), ELISA” value is reported as 36.5 pg/mL.

Compared with B1, B2 is 1.7-fold lower in “IL-10 release from human T cells (no tumor cells), ELISA” value: 3.6 pg/mL for the first, 2.1 pg/mL for the second.

In the case of B3, the “IL-10 release from human T cells (no tumor cells), ELISA” value is reported as 29.8 pg/mL.

B1 and B2 are within 1.5-fold of each other in “TNF-α release from human T cells (no tumor cells), ELISA” value: 7.9 pg/mL for the first, 7.6 pg/mL for the second.

For B3, the “TNF-α release from human T cells (no tumor cells), ELISA” value was 86.7 pg/mL.
